B1: Biotinylated human Norrin wild-type (pHL-Avitag3 construct) [modified: biotin on the C-terminal BirA recognition sequence (in vivo biotinylation); biotin on the C-terminal BirA recognition sequence (in vivo … (parent)
chain 1: KTDSSFIMDSDPRRCMRHHYVDSISHPLYKCSSKMVLLARCEGHCSQASRSEPLVSFSTVLKQPFRSSCHCCRPQTSKLKALRLRCSGGMRLTATYRYILSCHCEECNS
chain 2: ERRCDPIRISMCQNLGYNVTKMPNLVGHELQTDAELQLTTFTPLIQYGCSSQLQFFLCSVYVPMCTEKINIPIGPCGGMCLSVKRRCEPVLKEFGFAWPESLNCSKFPPQNDHNHMCMEGPGDEEVPLPHKTPIQPGE

The variants in this experiment derive from B1. Put plainly: SPR. Particulars: with Frizzled4 cysteine-rich domain (Fz4CRD), Norrin mutant immobilized on CM5 chip, Fz4CRD as analyte, 1:1 Langmuir binding model.

On to chain 1 M90N L92S, for which the screen value (Surface: 435 RU (WT surface in panel A: 336 RU)) turned out to be 78 RU. Besides, the Kd (Surface: 435 RU) was 1060 nM.

For chain 1 L28N K30S, under “Surface: 325 RU (WT surface in panel A: 336 RU)”, the screen value turned out to be 122 RU. In addition, the Kd (Surface: 325 RU) was 1250 nM.

These data come from paper PMC4497409.
